The target in assay [1] is T1, Homo sapiens AXL-Mus musculus FN1 domain (p33-AXL-mFN1) (human-mouse chimera, UniProt P30530 26-894).
T1 construct: Expressed in HEK293F cells; also called hsAXL-mmFN1; TH1021-mFN1
T1 chain: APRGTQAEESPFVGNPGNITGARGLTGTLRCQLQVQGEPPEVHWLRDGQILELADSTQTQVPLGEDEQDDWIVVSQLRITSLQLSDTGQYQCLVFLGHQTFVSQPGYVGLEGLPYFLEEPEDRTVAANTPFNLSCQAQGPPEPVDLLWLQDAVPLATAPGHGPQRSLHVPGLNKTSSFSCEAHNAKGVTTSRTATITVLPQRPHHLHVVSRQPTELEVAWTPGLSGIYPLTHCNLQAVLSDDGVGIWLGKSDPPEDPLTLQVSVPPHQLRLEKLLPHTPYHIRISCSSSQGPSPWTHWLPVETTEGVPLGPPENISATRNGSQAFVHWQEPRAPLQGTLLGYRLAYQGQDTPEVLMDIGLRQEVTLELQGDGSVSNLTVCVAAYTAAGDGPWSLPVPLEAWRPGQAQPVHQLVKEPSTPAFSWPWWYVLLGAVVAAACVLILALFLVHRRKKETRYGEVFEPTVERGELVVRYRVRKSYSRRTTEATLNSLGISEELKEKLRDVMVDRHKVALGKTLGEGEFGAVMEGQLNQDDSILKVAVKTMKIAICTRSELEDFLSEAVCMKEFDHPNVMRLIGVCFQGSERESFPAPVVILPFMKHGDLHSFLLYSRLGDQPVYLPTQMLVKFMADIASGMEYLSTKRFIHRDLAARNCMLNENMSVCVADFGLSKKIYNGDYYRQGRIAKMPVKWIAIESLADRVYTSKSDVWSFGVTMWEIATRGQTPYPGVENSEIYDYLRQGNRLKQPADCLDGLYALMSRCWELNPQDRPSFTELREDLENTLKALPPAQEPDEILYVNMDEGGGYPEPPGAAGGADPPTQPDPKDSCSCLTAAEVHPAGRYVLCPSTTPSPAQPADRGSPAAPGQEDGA
The experiment in a line: flow cytometry, 1 µg/mL antibody, transfected HEK293F cells. (In general: A flow cytometer gives signals particle by particle.)

The target of assay [2] is T2, human AXL (full length) (human, UniProt P30530 26-894).
T2 construct: also called TH1021-AXL; TH1021-hAXL
Put plainly: flow cytometry, HEK293T cells transiently transfected with human AXL.

Assay [3] addresses T2, human AXL (full length). Put plainly: flow cytometry, HEK293T cells with full-length human AXL.
Assay [4] addresses T2, human AXL (full length). Put plainly: flow cytometry, A431 cells, no Gas6.
Assay [5] has as its target T2, human AXL (full length). The experiment in a line: flow cytometry, A431 cells pre-incubated with 10 µg/mL Gas6 (competitor).
Assay [6] concerns the target T3, Homo sapiens AXL-Mus musculus Ig1 domain (p33-AXL-mIg1) (human-mouse chimera, UniProt P30530 8-894).
T3 construct: Expressed in HEK293F cells; also called hsAXL-mmIg1; hsAXL-mmIgl
T3 chain: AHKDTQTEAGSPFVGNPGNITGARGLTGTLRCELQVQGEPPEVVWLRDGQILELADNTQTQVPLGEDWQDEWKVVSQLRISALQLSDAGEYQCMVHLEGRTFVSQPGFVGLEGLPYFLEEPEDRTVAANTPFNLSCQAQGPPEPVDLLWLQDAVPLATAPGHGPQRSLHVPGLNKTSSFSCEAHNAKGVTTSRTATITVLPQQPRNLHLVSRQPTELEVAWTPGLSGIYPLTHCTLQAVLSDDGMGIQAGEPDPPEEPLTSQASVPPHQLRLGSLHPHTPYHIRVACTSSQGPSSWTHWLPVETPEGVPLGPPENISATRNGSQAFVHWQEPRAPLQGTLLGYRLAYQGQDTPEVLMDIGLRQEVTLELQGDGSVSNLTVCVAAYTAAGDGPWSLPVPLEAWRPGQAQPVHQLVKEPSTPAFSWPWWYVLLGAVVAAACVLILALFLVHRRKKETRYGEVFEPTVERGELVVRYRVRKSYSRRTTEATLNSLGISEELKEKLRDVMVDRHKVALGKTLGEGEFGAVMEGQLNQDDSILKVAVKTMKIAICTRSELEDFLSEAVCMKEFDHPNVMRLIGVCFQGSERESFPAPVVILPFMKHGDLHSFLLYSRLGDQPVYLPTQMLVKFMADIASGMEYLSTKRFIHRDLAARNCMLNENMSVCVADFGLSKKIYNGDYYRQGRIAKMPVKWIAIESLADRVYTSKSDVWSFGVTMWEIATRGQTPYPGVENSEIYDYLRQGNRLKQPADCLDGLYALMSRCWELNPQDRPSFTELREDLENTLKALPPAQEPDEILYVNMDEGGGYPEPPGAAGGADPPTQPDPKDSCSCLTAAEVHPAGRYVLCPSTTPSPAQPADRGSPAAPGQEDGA
Put plainly: flow cytometry, 1 µg/mL antibody, transfected HEK293F cells.

The target in assay [7] is T2, human AXL (full length). The experiment in a line: FMAT screening assay, HEK-293F cells transiently expressing human AXL.

Residue numbers refer to the chain shown, from its start.

By EC50 (read off the curve) is commonly meant the concentration that produces a half-maximal response. A low value points to a more potent agent. A word on the EC50: it is the concentration that produces a half-maximal response.

B1: IgG1-AXL-183 (antibody, V domains shown)
VH: QVQLQQWGAGLLKPSETLSLTCAVYGGSFSGYYWSWIRQPPGKGLEWIGEINQSGSTNYNPSLKSRVTISVDTSKNQFSLKLSSVTAADTSVYYCASGNWDHFFDYWGQGTLVTVSS
VL: DIQMTQSPSSVSASVGDRVTITCRASQGISSWLAWYQHKPGKAPKLLIYATSSLQSGVTSRFSGSGSGTDFTLTISSLQPEDFATYYCQQAKSFPWTFGQGTKVEIK
B1: the binding result in assay [1] and in assay [6] was “binds” in each case. In addition, the “EC50 (read off the curve)” value in the assay with human AXL (full length) [2] was approximately 0.1 µg/mL. The EC50 with human AXL (full length) [3] was determined as 0.526 µg/mL; with human AXL (full length) [4], 0.69 µg/mL; in the assay with human AXL (full length) [5], 1.19 µg/mL. For the same molecule, in the assay with human AXL (full length) [5], the “maximal binding in presence of Gas6 (% of binding in absence of Gas6)” value worked out at 90%.

B2: IgG1-AXL-733 (antibody, V domains shown)
VH: QVQLVESGGGVVQPGRSLRLSCAASGFSFSTYAMHWVRQAPGKGLEWVAVISYDGDNKYSADSVKGRFTISRDNSKNTLYLQMNSLRAEDTAVYYCARGRKLGIDAFDIWGQGTMVTVSS
VL: AIQLTQSPSSLSASVGDRVTITCRASQGISSALAWYQQKPGKAPKLLIYDASSLESGVPSRFSGSGSGTDFTLTISGLQPEDFATYYCQQFNSYPFTFGPGTKVDIK
For the molecule B2, the EC50 with human AXL (full length) [3] worked out at 0.176 µg/mL; in the assay with human AXL (full length) [4], 0.49 µg/mL; with human AXL (full length) [5] it was 0.62 µg/mL. Further, in the assay with human AXL (full length) [5], the “maximal binding in presence of Gas6 (% of binding in absence of Gas6)” value amounted to 93%. In assay [6], the binding result is listed as “binds”.

B3: IgG1-AXL-148 (antibody, V domains shown)
VH: EVQLLESGGGLVQPGGSLRLSCAASGFTFSSYAMTWVRQAPGKGLEWVSAISISGGSTFYADSVKGRFTISRDNSKNTLYLQMNSLRAEDTAVYYCRGYSGYVYDAFDFWGQGTMVTVSS
VL: DIQMTQSPSSLSASVGDRVTITCRASQGISNWLAWYQQKPEKAPKSLIYAASSLQSGVPSRFSGSGSGTDFTLTISSLQPEDFATYYCQQYNSYPLTFGGGTKVEIK
B3: the EC50 with human AXL (full length) [7] came to 0.0036 µg/mL; with human AXL (full length) [3], 0.094 µg/mL; with human AXL (full length) [4], 0.11 µg/mL; with human AXL (full length) [5], 0.2 µg/mL. Moreover, in the assay with human AXL (full length) [7], the “Maximal binding (Arbitrary units)” value stood at 3500 arbitrary units. Further, the binding result in assay [1] and in assay [6] was “binds” in each case. Besides, in the assay with human AXL (full length) [5], the “maximal binding in presence of Gas6 (% of binding in absence of Gas6)” value worked out at 93%.

B4: IgG1-AXL-726 (antibody, V domains shown)
VH: QVQLQQWGAGLLKPSETLSLTCAIDGGSFSGYYWSWIRQPPGKGLEWIGEISHSGRTNYNPSLKSRVTISIDTSKNQFSLKLSSVAAADTAVYYCARFITMIRGAIITHFDYWGQGALVTVSS
VL: B3 VL with N31S, N92H, L96Y, G100Q, V104L
Take B4: the EC50 with human AXL (full length) [7] is 0.0471 µg/mL; in the assay with human AXL (full length) [3], 0.288 µg/mL; in the assay with human AXL (full length) [4] it was 0.32 µg/mL; with human AXL (full length) [5], 0.55 µg/mL. Besides, in the assay with human AXL (full length) [7], the “Maximal binding (Arbitrary units)” value turned out to be 3150 arbitrary units. Further, the binding result in assay [1] and in assay [6] was “binds” throughout. Besides, in the assay with human AXL (full length) [2], the “EC50 (read off the curve)” value was approximately 0.09 µg/mL. For the same molecule, the “maximal binding in presence of Gas6 (% of binding in absence of Gas6)” value with human AXL (full length) [5] was 97%.
